The values below come from article PMC5137110, “Relocation of active site carboxylates in major facilitator superfamily multidrug transporter LmrP reveals plasticity in proton interactions” (Scientific Reports, 2016).

What is called Km is the concentration of substrate that gives half-maximal velocity.

One data set concerns the target T1, LmrP (Lactococcus lactis, UniProt Q48658).
T1 construct: full length, 408 residues; His6-tagged (His10-tagged for T331E); plasmid pNZ8084; expressed in L. lactis NZ9000 delta-lmrA delta-lmrCD
Put plainly: fluorescence anisotropy, purified protein titrated into propidium. Particulars: 50 mM KPi pH 7.0, 100 mM NaCl, 0.05% DDM; 0.2 or 1 μM propidium. The data set is classed as binding. A general note: In fluorescence polarisation assays a small probe gives low polarisation when free and higher when bound to something large.

The test system of data set [1] is CC[N+](C)(CC)CCC[n+]1c(-c2ccccc2)c2cc(N)ccc2c2ccc(N)cc21. Put plainly: cells, lysate or membranes. Particulars: 50 mM KPi pH 7.0, 5 mM MgSO4, corrected for influx in cells without LmrP. In kind it is cell-based, Lactococcus lactis.
Data set [2] deals with CC[n+]1c(-c2ccccc2)c2cc(N)ccc2c2ccc(N)cc21. Put plainly: cells, lysate or membranes. The data set is classed as cell-based, Lactococcus lactis. The settings on record: 50 mM KPi pH 7.0, 5 mM MgSO4, corrected for influx in cells without LmrP.

Turning to `CC[N+](C)(CC)CCC[n+]1c(-c2ccccc2)c2cc(N)ccc2c2ccc(N)cc21` [propidium], the “fluorescence anisotropy, purified protein titrated into propidium” value on LmrP is “propidium binding to purified T331E LmrP and WT LmrP was measured by fluorescence anisotropy”.
Consider LmrP (Lactococcus lactis), for which the Km in data set [1] was 1.3 ± 0.2 µM; in data set [2], 7.7 ± 5.1 µM.
